Publication doi:10.1101/2025.02.10.637573 (bioRxiv, 2025)

B1: Vps74InNb#4-HA (expressed in the cytoplasm of yeast cells) (VHH)
VHH: QVQLQESGGGLVQAGGSLRLSCAASGSISTIVGMGWYRQAPGKERELVAAITGGSSTNYADSVKGRFTISRDNAKNTVYLQMNSLKPEDTAVYYCAAVSYEYRSSPYPETYWGQGTQVTVSS
B2: Vps74InNb#4 (purified from the periplasm of E. coli) (VHH)
VHH: B1 VHH

How the values were obtained:
[1] = molecular target: Vps74 (endogenous, wild-type yeast cells) (Saccharomyces cerevisiae (strain ATCC …, UniProt Q06385)); experiment: co-IP
Chain of Vps74 (endogenous, wild-type yeast cells) (Saccharomyces cerevisiae (Q06385 whole entry): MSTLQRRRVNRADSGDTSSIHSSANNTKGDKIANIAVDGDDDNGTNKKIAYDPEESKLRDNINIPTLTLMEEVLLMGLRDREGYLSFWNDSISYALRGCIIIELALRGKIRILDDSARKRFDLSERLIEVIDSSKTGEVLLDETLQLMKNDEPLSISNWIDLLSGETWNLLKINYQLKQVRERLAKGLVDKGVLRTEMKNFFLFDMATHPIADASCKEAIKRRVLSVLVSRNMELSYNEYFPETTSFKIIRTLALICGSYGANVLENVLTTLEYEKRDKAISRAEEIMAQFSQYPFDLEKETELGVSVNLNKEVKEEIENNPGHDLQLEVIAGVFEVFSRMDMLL

[2] = molecular target: Twin-Strep-Vps74 (yeast, UniProt Q06385); experiment: pull-down
Chain of Twin-Strep-Vps74 (Q06385 whole entry): as above

[3] = molecular target: Vps74 (bacterially expressed, as used in the in vitro mixing assays) (yeast, UniProt Q06385); experiment: pull-down
Chain of Vps74 (bacterially expressed, as used in the in vitro mixing assays) (Q06385 whole entry): as above

binding result [1] | binding result [2] | binding result [3] | Binder
binds |  |  | B1
 | binds | binds | B2
